Test results reported in US12404345B2, “Humanized antibodies against iRHOM2” (SCIRHOM GMBH, priority 2021, dated 2025).

T1: dog iRhom2 (Canis lupus familiaris, UniProt Q00M95)
T1 construct: pMSCV-dog-iR2-FL-WT-T7 encoding dog iRhom2 full length wild type; expressed in transfected cells; host or cells: immortalized iRhom1/2-/- DKO mouse embryonic fibroblasts, pMSCV retroviral infection
T1 sequence (Q00M95 1-827): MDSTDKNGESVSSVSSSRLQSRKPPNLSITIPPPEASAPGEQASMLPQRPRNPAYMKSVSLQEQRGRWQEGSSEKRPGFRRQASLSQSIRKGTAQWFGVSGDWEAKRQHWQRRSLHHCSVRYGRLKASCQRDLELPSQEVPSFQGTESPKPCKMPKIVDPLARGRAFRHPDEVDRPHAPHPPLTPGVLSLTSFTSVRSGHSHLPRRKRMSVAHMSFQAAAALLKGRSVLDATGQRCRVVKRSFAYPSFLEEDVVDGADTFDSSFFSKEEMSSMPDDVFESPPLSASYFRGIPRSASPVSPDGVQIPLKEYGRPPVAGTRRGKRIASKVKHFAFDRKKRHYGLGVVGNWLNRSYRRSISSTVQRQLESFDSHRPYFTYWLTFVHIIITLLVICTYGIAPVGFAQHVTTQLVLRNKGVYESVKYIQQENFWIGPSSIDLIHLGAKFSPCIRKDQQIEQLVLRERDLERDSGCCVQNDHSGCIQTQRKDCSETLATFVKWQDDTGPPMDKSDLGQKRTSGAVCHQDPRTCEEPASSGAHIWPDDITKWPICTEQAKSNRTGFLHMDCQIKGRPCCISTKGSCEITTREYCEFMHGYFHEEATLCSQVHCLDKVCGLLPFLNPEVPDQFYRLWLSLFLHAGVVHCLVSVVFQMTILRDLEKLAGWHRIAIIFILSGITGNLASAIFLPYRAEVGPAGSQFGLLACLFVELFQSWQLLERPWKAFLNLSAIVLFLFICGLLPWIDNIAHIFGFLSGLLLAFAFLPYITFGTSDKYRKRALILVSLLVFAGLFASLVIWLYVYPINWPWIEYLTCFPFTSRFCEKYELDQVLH


biological target: T1, dog iRhom2; test: FACS cross-reactivity on MEF-DKO-Dog-iR2-FL-WT-T7 cells; assay type: binding; details: antibody at 3 μg/ml
From the text: Next, iRhom1/2−/− DKO MEFs stably expressing a tagged form of rhesus monkey, cynomolgus monkey, dog or rabbit iRhom2 were generated in order to determine cross-reactivity of the antibodies of the invention with the respective orthologue of iRhom2. iRhom1/2−/− DKO MEFs stably expressing a tagged form of rhesus monkey, cynomolgus monkey, dog or rabbit iRhom1 were generated to confirm specificity for iRhom2 versus iRhom1 of these species.
In brief, on day 1, Phoenix-ECO cells (American Type Culture Collection, USA) were seeded on 6-well tissue culture plates (Greiner, Germany) in standard growth medium at 8×10^5 cells per well and kept overnight at 37° C., 5% CO2. On day 2, the medium was replaced by fresh medium supplemented with chloroquine (Sigma-Aldrich, USA) at a final concentration of 25 μM. Applying the calcium phosphate method, cells were transfected with 2 μg/ml of pMSCV (Clontech, USA) empty vector, pMSCV-rhesus-iR2-FL-WT-T7 encoding rhesus monkey iRhom2 full length wild type C-terminally tagged with 3 consecutive copies of the T7 epitope, pMSCV-cyno-iR2-FL-WT-T7 encoding cynomolgus monkey iRhom2 full length wild type C-terminally tagged with 3 consecutive copies of the T7 epitope, pMSCV-dog-iR2-FL-WT-T7 encoding dog iRhom2 full length wild type C-terminally tagged with 3 consecutive copies of the T7 epitope or pMSCV-rabbit-iR2-FL-WT-T7 encoding rabbit iRhom2 full length wild type C-terminally tagged with 3 consecutive copies of the T7 epitope, respectively, and were kept at 37° C., 5% CO2. After 7 hours, the transfections were stopped by replacing cell supernatants with standard growth medium lacking chloroquine, and cells were incubated at 37° C., 5% CO2 to allow virus production overnight. In parallel, immortalized iRhom1/2−/− DKO MEFs as target cells for retroviral infection were seeded on 6-well tissue culture plates (Greiner, Germany) in standard growth medium at 1×10^5 cells per well and were also kept overnight at 37° C., 5% CO2. On day 3, the supernatants of Phoenix-ECO cells releasing pMSCV, pMSCV-rhesus-iR2-FL-WT-T7, pMSCV-cyno-iR2-FL-WT-T7, pMSCV-dog-iR2-FL-WT-T7 or pMSCV-rabbit-iR2-FL-WT-T7 ecotrophic virus, respectively were collected, filtered with 0.45 μm CA filters, and supplemented with 4 μg/ml of polybrene (Sigma-Aldrich, USA). Upon removal of medium from the immortalized iRhom1/2−/− DKO MEFs, the virus containing supernatants were added to the target cells for 4 hours at 37° C., 5% CO2 for first infection. Simultaneously, Phoenix-ECO cells were re-incubated with fresh medium, which, after another 4 hours, was filtered and used for the second infection of the respective target cell populations, again in the presence of 4 μg/ml of polybrene. Likewise, a third, but overnight infection cycle was performed. On day 4, virus containing cell supernatants were replaced by fresh standard growth medium. From day 5 onwards, cells were grown in the presence of 2 mg/ml of geneticin (G418, Thermo Fisher Scientific, USA) for the selection of immortalized MEF-DKO-EV control cells stably infected with pMSCV empty vector, pMSCV-rhesus-iR2-FL-WT-T7 cells stably expressing rhesus monkey iRhom2 full length wild type C-terminally tagged with 3 consecutive copies of the T7 epitope, pMSCV-cyno-iR2-FL-WT-T7 cells stably expressing cynomolgus monkey iRhom2 full length wild type C-terminally tagged with 3 consecutive copies of the T7 epitope, pMSCV-dog-iR2-FL-WT-T7 cells stably expressing dog iRhom2 full length wild type C-terminally tagged with 3 consecutive copies of the T7 epitope or pMSCV-rabbit-iR2-FL-WT-T7 cells stably expressing rabbit iRhom2 full length wild type C-terminally tagged with 3 consecutive copies of the T7 epitope, respectively. Upon propagation, cells were stocked for future usage. In parallel, iRhom1/2−/− DKO MEFs stably expressing a tagged form of rhesus monkey, cynomolgus monkey, dog or rabbit iRhom1 were generated in an analogous manner. […]

Molecule | binding to dog iRhom2 on MEF-DKO-Dog-iR2-FL-WT-T7 cells
16-B-03: humanized antibody binding human iRhom2; HCVD SEQ ID NO 1, LCVD SEQ ID NO 5 (antibody, V domains shown, antibody sequences) VH: QVTLRESGPALVKPTQTLTLTCTFSGFSLSTFALGVGWIRQPPGKALEWLAHIWWDDDKYYNPALKSRLTISKDTSKNQVVLTITNMDPVDTATYYCARITTYYYGMDYWGQGTLVTVSS VL: EIVMTQSPDFQSVTPKEKVTITCRASQSIGNHLHWYQQKPDASPKLLIKYASQSISGVPSRFSGSGSGTDFTLTINSLEAEDAATYFCQQSYQWPLTFGQGTKLEIK | Strong binding
16-B-05: humanized antibody binding human iRhom2; HCVD SEQ ID NO 9, LCVD SEQ ID NO 13 (antibody, V domains shown, antibody sequences) VH: QVTLRESGPALVKPTQTLTLTCTFSGFSLSTFALGVGWIRQPPGKALEWLAHIWWDEDKYYNPALKSRLTISKDTSKNQVVLTITNMDPVDTATYYCARITTYYYGMDYWGQGTLVTVSS VL: EIVMTQSPDFQSVTPKEKVTITCRASQSIGNHLHWYQQKPDASPKLLIKYASQSISGVPSRFSGSGSGTDFTLTINSLEAEDAATYFCQQSYNWPLTFGQGTKLEIK | recognize dog iRhom2
16-B-07: humanized antibody binding human iRhom2; HCVD SEQ ID NO 17, LCVD SEQ ID NO 21 (antibody, V domains shown, antibody sequences) VH: QVTLRESGPALVKPTQTLTLTCTFSGFSLSTFALGVGWIRQPPGKALEWLAHIWWDEDKYYNPALKSRLTISKDTSKNQVVLTITNMDPVDTATYYCARITTYYYGMDYWGQGTLVTVSS VL: EIVMTQSPDFQSVTPKEKVTITCRASQSIGNHLHWYQQKPDASPKLLIKYASQSISGVPSRFSGSGSGTDFTLTINSLEAEDAATYFCQQSYQWPLTFGQGTKLEIK | recognize dog iRhom2
23-B-04: humanized antibody binding human iRhom2; HCVD SEQ ID NO 25, LCVD SEQ ID NO 29 (antibody, V domains shown, antibody sequences) VH: QVTLRESGPALVKPTQTLTLTCTFSGFSLSTFGMGVGWIRQPPGKALEWLAHIWWDDEKYYNSALKSRLTISKDTSKNQVVLTITNMDPVDTATYYCARISNYGSNYWYFNVWGQGTLVTVSS VL: AIQLTQSPSSLSASVGDRVTITCRASSSVSYMYWYQQKPGKAPKVLIYDTSNLASGVPSRFSGSGSGTDYTLTISSLQPEDFATYYCQQWNAYPLTFGQGTKLEIK | recognize dog iRhom2
42-B-02: humanized antibody binding human iRhom2; HCVD SEQ ID NO 33, LCVD SEQ ID NO 37 (antibody, V domains shown, antibody sequences) VH: QVTLRESGPALVKPTQTLTLTCTFSGFSLSTFGRGVGWIRQPPGKALEWLAHIWWDDEKYYNSALKSRLTISKDTSKNQVVLTITNMDPVDTATYYCARIQNYGSNYWYFDVWGQGTLVTVSS VL: AIQLTQSPSSLSASVGDRVTITCRASSRISYMFWYQQKPGKAPKVLIYDTSNLASGVPSRFSGSGSGTDYTLTISSLQPEDFATYYCQQWNSYPLTFGQGTKLEIK | recognize dog iRhom2
42-B-04: humanized antibody binding human iRhom2; HCVD SEQ ID NO 41, LCVD SEQ ID NO 45 (antibody, V domains shown, antibody sequences) VH: QVTLRESGPALVKPTQTLTLTCTFSGFSLSTFGRGVGWIRQPPGKALEWLAHIWWDDEKYYNSALKSRLTISKDTSKNQVVLTITNMDPVDTATYYCARIQNYGSNYWYFDVWGQGTLVTVSS VL: AIQLTQSPSSLSASVGDRVTITCRASSRISYMFWYQQKPGKAPKVLIYDTSNLASGVPSRFSGSGSGTDYTLTISSLQPEDFATYYCQQWNAYPLTFGQGTKLEIK | recognize dog iRhom2
